Laboratory results reported in the nanobody polyreactivity screen of Harvey et al. (2022).

Assay: yeast display, Sf9 membrane polyspecificity reagent, FACS + sequencing; frameworks hold sequencing errors
Outline: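 Synthetic nanobody libraries on Saccharomyces cerevisiae BJ5465 were galactose-induced for 36–48 hours, stained 1 hour at 4 °C with 10% biotinylated, detergent-solubilized Sf9 membrane reagent and enriched on streptavidin microbeads. FACS then separated cells into low and high (top ~1%) gates by anti-HA (expression) and streptavidin (reagent binding) fluorescence. Genes were colony-PCR amplified, MiSeq 2 × 250 sequenced and CDR-length filtered. A clone's polyreactivity label is that of its gate of origin.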

| Sequence | polyreactivity (PSR sort gate) |
| --- | --- |
| QVQLVESGGGLVQAGGSLRLSCAASGGTFQAYAMGWYRQAPGKERELVAAISRSGGRTYYADSVKGRFTISRDNAKNTVYLQMNSLKPEDTAVYYCNAGAYYRNEMDYWGQGTQVTVSS | high polyreactivity |
| QVQLVESGGGLVQAGGSLRLSCAASGGTFQINAMGWYRQAPGKERELVAAISRSGGSTSYADSVKGRFTISRDNAKNTVYLQMNSLKPEDTAVYYCNKRVRATAWYDYWGQGTQVTVSS | high polyreactivity |
| QVQLVESGGGLVQAGGSLRLSCAASGGTFQPNAMGWYRQAPGKERELVAAISWSDGSTYYADSVKGRFTISRDNAKNTVYLQMNSLKPEDTAVYYCAADFTYYDSPYRDYNYESWGQGTQVTVSS | low polyreactivity |
| QVQLVESGGGLVQAGGSLRLSCAASGGTFRAYVMGWYRQAPGKERELVAAISRSGTRTYYADSVKGRFTISRDNAKNTVYLQMNSLKPEDTAVYYCAAAAKSWLFDYWGQGTQVTVSS | high polyreactivity |
| QVQLVESGGGLVQAGGSLRLSCAASGGTFRLYAMGWYRQAPGKERELVAAITGSSGGTYYADSVKGRFTISRDNAKNTVYLQMNSLKPEDTAVYYCAARSSYWGQGTQVTVSS | low polyreactivity |
| QVQLVESGGGLVQAGGSLRLSCAASGGTFRPYAMGWYRQAPGKERELVATIRSSGGRTYYADSVKGRFTISRDNAKNTVYLQMISLKPEDTAVYSCAADRTRGYGNDYWGQGTQVTVSS | high polyreactivity |
| QVQLVESGGGLVQAGGSLRLSCAASGGTFRRYTMGWYRPAPGKERELVAVISRSGGSTYYADSVKGRFTISRDIAKNTVYLQMNSLKPEDTAVYYCAVVYYNGYDWGQGTQVTVSS | high polyreactivity |
| QVQLVESGGGLVQAGGSLRLSCAASGGTFRSNAMGWYRQAPGKERELVAASTNYADSVKGRFTISRDNAKNTVYLQMNSLKPEDTAVYYCAAGPTDSQSGMDYWGQGTQVTVSS | low polyreactivity |
| QVQLVESGGGLVQAGGSLRLSCAASGGTFRVYVMGWYRQAPGKERELVAAISRGGGSTYYADSVKGRFTISRDNAKNTVYLQMNSLKPEDTAVYYCAARVWRYPWRASEYDYWGQGTQVTVSS | high polyreactivity |
| QVQLVESGGGLVQAGGSLRLSCAASGGTFRYNAMGWYRQAPGKERELVAAISRSGGSTHYADSVKGRFTISRDNAKNTVYLQMNSLKPEDTAVYYCAATVTFVPSRAGFYKYNYWGQGTQVTVSS | high polyreactivity |
| QVQLVESGGGLVQAGGSLRLSCAASGGTFRYYAMGWYRQAPGKERELVAAITSGDTTNYADSVKGRFTISRDNAKNTVYLQMNSLKPEDTAVYYCAKELQVRQAGDYWGQGTQVTVSS | low polyreactivity |
| QVQLVESGGGLVQAGGSLRLSCAASGGTFSGYTMGWYRQAPGKEWELVAAITRSGSSTYYADSVKGRFTISRDNAKNTVYLQMNSLKPEDTAVYYGAATYGSGVYKYDYWGQGTQVTVSS | high polyreactivity |
| QVQLVESGGGLVQAGGSLRLSCAASGGTFSKYAMGWYRQAPGKEREFVAAITVSGGGTYYADSVKGRFTISRDNAKYTVYLQMNSLKPEDTAVYDCAADLAWTASDYWGQVTQVTVSS | low polyreactivity |
| QVQLVESGGGLVQAGGSLRLSCAASGGTFSLNAMGWYRQAPGKEREFVAGITWGGGRTYYADSVKGRFTISRDNAKNTVYLQMNSLKPEDTAVYYCAAGAWRGPYSGYYYWGQGTQVTVSS | low polyreactivity |
| QVQLVESGGGLVQAGGSLRLSCAASGGTFSLYAMGWYRQAPGKEREFVAAISWRGTSTYYADSVKGRFTISRDNAKNTVYLQMNSLKPEDTAVYYCAARAWHEYGSWGQGTQVTVSS | high polyreactivity |
| QVQLVESGGGLVQAGGSLRLSCAASGGTFSPYAMGWYRQAPGKERELVAAIRYSGDRTYYADSVKGRFTISRDNAKNTVYLQMNSLKPEDTAVYYCAGPYYNTGYRYGYWGQGTQVTVSS | high polyreactivity |

| Sequence | polyreactivity (PSR sort gate) |
| --- | --- |
| QVQLVESGGGLVQAGGSLRLSCAASGGTFSPYYMGWYRQAPGKEREFVASITGSGGSTYYADSVKGRFTISRGNAKNTVYVQMNSLKPEDTAVYYCAAQCYWTYWPYLLRLYDYWGQGTQVTVSS | low polyreactivity |
| QVQLVESGGGLVQAGGSLRLSCAASGGTFSQYAMGWYRQAPGKERELVARISRRGGSTSYADSVKGRFTISRDNAKNTVYLQMNSLKPEDTAVYYCAKDAPSVYPGRFGNTGGYAYDYWGQGTQVTVSS | high polyreactivity |
| QVQLVESGGGLVQAGGSLRLSCAASGGTFSRNVMGCYRPAPGKERELVSAISRRGSSTYYADSVKGRFTISRDNAKNTVFLQMNSLKPEDTAVYYCARDQFTGADEAGDDYWGQGTQVTVSS | high polyreactivity |
| QVQLVESGGGLVQAGGSLRLSCAASGGTFSSYAMGWYRPAPGKERELVADITRRGGSTYYADSVKGRFTISRDNAKNTVYLQMNSLKPEDTAVYYCAKDYFRRGLWGFSIYGYWGQGTQVTVSS | high polyreactivity |
| QVQLVESGGGLVQAGGSLRLSCAASGGTFSVYAMGWYRQAPGKEREFVASITYGGGITYYADSVKGRFTISRDNAKNTVYLQMNSLKPEDTAVYYCAVDRRVLWYDMDYWGQGTQVTVSS | high polyreactivity |
| QVQLVESGGGLVQAGGSLRLSCAASGGTFSYNTMGWYRQAPGKERELVAVITFSGGSTYYADSVKGRFTISRDNAKNTVYLQMNSLKPEDTAVYYCNARSYPRWLRYDYWGQGTQVTVSS | low polyreactivity |
| QVQLVESGGGLVQAGGSLRLSCAASGGTFSYYAMGWYRQAPGKERELVAAITYSGDRTYYADSVKGRFTISRDNAKNTVYLQMNSLKPEDTAVYYCNAVRGSWYGYYYWGQGTQVTVSS | high polyreactivity |
| QVQLVESGGGLVQAGGSLRLSCAASGGTFVSYAMGWYRQAPGKERELVVAITYSGGSTYYADSVKGRFTISRDNAKNTVYLQMNRLKPEDTAVYYCAAPKFSYFSYSPRGKFKYEYWGQGTQVTVSS | low polyreactivity |
| QVQLVESGGGLVQAGGSLRLSCAASGGTFVTNAMGWYRQAPGKERELVAAISYDGGITYYADSVKGRFTISRDNAKNTVYLQMNSLKPEDTAVYYCAAYRRYRNWFNYWGQGTQVTVSS | high polyreactivity |
| QVQLVESGGGLVQAGGSLRLSCAASGGTFVTYTMAWYRQAPGKEREFVAAISRSGGSTYYADSVKGRFTISRDNAKNTVYLQMNSLKPEDTAVYYCATRGRYYGPGYDYWGQGTQVTVSS | high polyreactivity |
| QVQLVESGGGLVQAGGSLRLSCAASGGTFWKNAMGWYRQAPGKERELVAAIRSSSGNTYYADSVKGRFTISRDNAKNTVYLQMNSLKPEDTAVYSCARRYYDYGYDYYWGQGTQVTVSS | high polyreactivity |
| QVQLVESGGGLVQAGGSLRLSCAASGGTFWLYTMGWYRQAPGKERELVAAITKSGGSTYYADSVKGRFTISRDNAKNTVYLQMNSLKPEDTAVYYCAARYSVYRDGYYWGQGTQVTVSS | high polyreactivity |
| QVQLVESGGGLVQAGGSLRLSCAASGGTFWYYAMGWDRQAPGKERELVAAINWSGDSTYADSVKGRFTISRDNAKNTVYLQMNSLKPEDTAVYYCNADVWYYRMDYWGQGTQVTVSS | low polyreactivity |
| QVQLVESGGGLVQAGGSLRLSCAASGGTFWYYAMGWYRQAPGKERELVASISRGGSTNYADSVKGRFTISRDNAKNTVYLQMNSLKPEDTAVYYCNAGLRVGPRRYVDYEYDYWGQGTQVTVSS | low polyreactivity |
| QVQLVESGGGLVQAGGSLRLSCAASGGTFYANAMGWSRQAPGKEREFVASISRSVGSTYYADSVKGRFTISRDNAKNTVYLQMNSLKPEDTAVYYCAARRYSRPRYTYYSWGQGTQVTVSS | high polyreactivity |
| QVQLVESGGGLVQAGGSLRLSCAASGGTFYAYAMGWYRQAPGKERELVAAISRSGSTYYADSVKGRFTISRDNAKNTVYLQMNSLKPEDTAVYYCAARRARRDPVGYVYAKYGYWGQGTQVTVSS | high polyreactivity |
